Experiment [1] concerns the target T1, BPTI-K15R/R17D (bovine, UniProt P00974 36-93). The experiment is described as follows: co-crystal structure, PDB 3P95. As to the method:
The heterodimeric complexes were further purified by HiLoad Superdex 75 gel filtration chromatography (GE Healthcare), exchanged into 10 mM Na acetate, pH 6.5, and concentrated to ˜3 mg/mL. […] Drops (4 μL) were prepared by mixing equal volumes of protein and reservoir solutions.

Experiment [2] addresses T2, BPTI-K15R/R17G (bovine, UniProt P00974 36-93). The experiment is described as follows: co-crystal structure, PDB 3P92.
Experiment [3] addresses T1, BPTI-K15R/R17D. The experiment is described as follows: 1/Ki from competitive inhibition.
The target of another experiment is BPTI-R17M (bovine, UniProt P00974 36-93). The experiment is described as follows: 1/Ki from competitive inhibition.
Experiment [4] has as its target bovine pancreatic trypsin inhibitor, wild type (bovine, UniProt P00974 36-93). The experiment in a line: 1/Ki from competitive inhibition.
For the next experiment, the target named is BPTI-K15R (bovine, UniProt P00974 36-93). The experiment in a line: 1/Ki from competitive inhibition.
For the next experiment, the target named is BPTI-K15R/R17M (bovine, UniProt P00974 36-93). The experiment in a line: 1/Ki from competitive inhibition.
The target of experiment [5] is T2, BPTI-K15R/R17G. The experiment in a line: 1/Ki from competitive inhibition.
Experiment [6] concerns the target T2, BPTI-K15R/R17G. The experiment in a line: slow tight-binding inhibition kinetics.
Experimental: Reactions were run at 25° C., and were followed spectroscopically for 16 hours so that reliable steady-state rates could be obtained.

Substitutions are numbered along the chain they refer to. In names and notes the source's numbering stands.

The record followed here is US20120094923A1 (published 2012).

B1: catalytically inactive mesotrypsin-S195A (enzyme)
chain: IVGGYTCEENSLPYQVSLNSGSHFCGGSLISEQWVVSAAHCYKTRIQVRLGEHNIKVLEGNEQFINAAKIIRHPKYNRDTLDNDIMLIKLSSPAVINARVSTISLPTAPPAAGTECLISGWGNTLSFGADYPDELKCLDAPVLTQAECKASYPGKITNSMFCVGFLEGGKDSCQRDAGGPVVCNGQLQGVVSWGHGCAWKNRPGVYTKVYNYVDWIKDTIAANS
notes: Used for the co-crystal structures; also called S195A mutant
For the molecule B1, the binding result with BPTI-K15R/R17D [1] and with BPTI-K15R/R17G [2] was “binds” in each case.

B2: recombinant human mesotrypsin (enzyme)
chain: B1 chain with A177S
notes: also called PRSS3
For the molecule B2, the Ka in the experiment with BPTI-K15R/R17D [3] came to 667000 M⁻¹; with BPTI-R17M it was 1.32e+06 M⁻¹; in experiment [4], 74100 M⁻¹; in the experiment with BPTI-K15R, 417000 M⁻¹; with BPTI-K15R/R17M it was 4.76e+06 M⁻¹; in the experiment with BPTI-K15R/R17G [5], 9.3e+07 M⁻¹.

B3: recombinant human anionic trypsin (enzyme, UniProt P07478 24-247, looked up)
chain: IVGGYICEENSVPYQVSLNSGYHFCGGSLISEQWVVSAGHCYKSRIQVRLGEHNIEVLEGNEQFINAAKIIRHPKYNSRTLDNDILLIKLSSPAVINSRVSAISLPTAPPAAGTESLISGWGNTLSSGADYPDELQCLDAPVLSQAECEASYPGKITNNMFCVGFLEGGKDSCQGDSGGPVVSNGELQGIVSWGYGCAQKNRPGVYTKVYNYVDWIKDTIAANS
notes: mature
Regarding B3, the binding result with BPTI-K15R/R17G [6] is reported as “binds”.
